Results published in paper doi:10.1101/2021.03.19.436211 (bioRxiv, 2021).

How the values were obtained:
crystal structure = target: the molecule itself; experiment: crystal structure
SEC = target: the molecule itself; experiment: SEC
SEC-MALS = target: the molecule itself; experiment: SEC-MALS

B1: mouse lipin 2 M-Lip^xtal domain (domain or fragment, UniProt Q99PI5 459-549, looked up)
chain: SAMDLPDVTLSLCGGLSENGEISKEKFMEHIITYHEFAENPGLIDNPNLVIRIYNRYYNWALAAPMILSLQVFQKSLPKATVESWVKDKMP
binding result (crystal structure): binds

B2: full-length mouse lipin 1α (purified from Sf9 cells) (enzyme, UniProt Q91ZP3-2 1-891, looked up)
chain: MNYVGQLAGQVFVTVKELYKGLNPATLSGCIDIIVIRQPNGSLQCSPFHVRFGKMGVLRSREKVVDIEINGESVDLHMKLGDNGEAFFVQETDNDQEIIPMYLATSPILSEGAARMESQLKRNSVDRIRCLDPTTAAQGLPPSDTPSTGSLGKKRRKRRRKAQLDNLKRDDNVNSSEDEDMFPIEMSSDEDTAPMDGSRTLPNDVPPFQDDIPKENFPSISTHPQSASYPSSDREWSPSPSPSGSRPSTPKSDSELVSKSADRLTPKNNLEMLWLWGELPQAAKSSSPHKMKESSPLGSRKTPDKMNFQAIHSESSDTFSDQSPTMARGLLIHQSKAQTEMQFVNEEDLESLGAAAPPSPVAEELKAPYPNTAQSSSKTDSPSRKKDKRSRHLGADGVYLDDLTDMDPEVAALYFPKNGDPGGLPKQASDNGARSANQSPQSVGGSGIDSGVESTSDSLRDLPSIAISLCGGLSDHREITKDAFLEQAVSYQQFADNPAIIDDPNLVVKVGNKYYNWTTAAPLLLAMQAFQKPLPKATVESIMRDKMPKKGGRWWFSWRGRNATIKEESKPEQCLTGKGHNTGEQPAQLGLATRIKHESSSSDEEHAAAKPSGSSHLSLLSNVSYKKTLRLTSEQLKSLKLKNGPNDVVFSVTTQYQGTCRCEGTIYLWNWDDKVIISDIDGTITRSDTLGHILPTLGKDWTHQGIAKLYHKVSQNGYKFLYCSARAIGMADMTRGYLHWVNERGTVLPQGPLLLSPSSLFSALHREVIEKKPEKFKVQCLTDIKNLFFPNTEPFYAAFGNRPADVYSYKQVGVSLNRIFTVNPKGELVQEHAKTNISSYVRLCEVVDHVFPLLKRSHSCDFPCSDTFSNFTFWREPLPPFENQDMHSASA
binding result (SEC): binds

B3: mouse lipin 1 M-Lip^xtal domain (as used for SEC-MALS) (domain or fragment, UniProt Q91ZP3-2 458-548, looked up)
chain: SLRDLPSIAISLCGGLSDHREITKDAFLEQAVSYQQFADNPAIIDDPNLVVKVGNKYYNWTTAAPLLLAMQAFQKPLPKATVESIMRDKMP
stoichiometry N (SEC-MALS): 2
